Here are results for 94 variants from the supplement of paper PMC10567573.

To fix the notation:
B1: BTBD1 (parent)
chain: FVLGKGRGAAAAGGPQRIPAHRFV
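Also: lentivirally expressed fusions sorted by FACS into six bins by GFP to DsRed ratio, PSI derived from sequencing read proportions per bin multiplied by bin number.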

The series covers variants of B1. The experiment in a line: protein stability index of a GFP-peptide fusion (GPS, HEK-293T) (PSI 1-6); higher = more stable. The conditions noted are these: c terminus: a fixed tail appended.
On to FVLGKGRGAAAKGGPQRIPAHRFV [A12K], for which the protein stability index came out at 1.82. The value for FVLGKGRGAAADGGPQRIPAHRFV [A12D] was 1.91; that for FVLGKGRGAAACGGPQRIPAHRFV [A12C] was 2.54.

Consider FVLGKGRGAAAWGGPQRIPAHRFV [A12W], for which the protein stability index came out at 2.86. With FVLGKGRGAAAGGGPQRIPAHRFV [A12G], the protein stability index is 2.21.

Turning to FVLGKNRGAAAAGGPQRIPAHRFV [G6N], the protein stability index turned out to be 2.1.

As to FVLGKQRGAAAAGGPQRIPAHRFV [G6Q], the protein stability index stood at 1.91.

For the variant FVLGKHRGAAAAGGPQRIPAHRFV [G6H], the protein stability index is 1.67.

With FVLGKLRGAAAAGGPQRIPAHRFV [G6L], the protein stability index stood at 2.69. The value for FVLGKYRGAAAAGGPQRIPAHRFV [G6Y] was 3.51; that for FVLGKTRGAAAAGGPQRIPAHRFV [G6T] was 1.61.

In the case of FVLGKMRGAAAAGGPQRIPAHRFV [G6M], the protein stability index turned out to be 1.38. For FVLGKSRGAAAAGGPQRIPAHRFV [G6S], the protein stability index came to 1.44. The value for FVLGKERGAAAAGGPQRIPAHRFV [G6E] was 2.1; that for FVLGKRRGAAAAGGPQRIPAHRFV [G6R] was 1.78. Turning to FVLGKFRGAAAAGGPQRIPAHRFV [G6F], the protein stability index was found to be 1.02. The result for FVLGKVRGAAAAGGPQRIPAHRFV [G6V] reads 1.69.

On to FVLGKKRGAAAAGGPQRIPAHRFV [G6K], for which the protein stability index was determined as 1.69. The result for FVLGKPRGAAAAGGPQRIPAHRFV [G6P] reads 1.82; that for FVLGKDRGAAAAGGPQRIPAHRFV [G6D], 1.88. The result for FVLGKARGAAAAGGPQRIPAHRFV [G6A] reads 1.97; that for FVLGKIRGAAAAGGPQRIPAHRFV [G6I], 2.4. Regarding FVLGKGRGEAAAGGPQRIPAHRFV [A9E], the protein stability index was found to be 2.72.

With FVLGKGRGKAAAGGPQRIPAHRFV [A9K], the protein stability index was 1.92. The value for FVLGKGRGHAAAGGPQRIPAHRFV [A9H] was 2.08.

Turning to FVLGKGRGPAAAGGPQRIPAHRFV [A9P], the protein stability index was found to be 1.6. The result for FVLGKGRGFAAAGGPQRIPAHRFV [A9F] reads 1.28.

As to FVLGKGRGLAAAGGPQRIPAHRFV [A9L], the protein stability index is 3.31. Regarding FVLGKGRGYAAAGGPQRIPAHRFV [A9Y], the protein stability index was 1.87. The result for FVLGKGRGNAAAGGPQRIPAHRFV [A9N] reads 1.95; that for FVLGKGRGTAAAGGPQRIPAHRFV [A9T], 1.96. The value for FVLGKGRGDAAAGGPQRIPAHRFV [A9D] was 2.35; that for FVLGKGRGSAAAGGPQRIPAHRFV [A9S] was 1.57. The value for FVLGKGRGCAAAGGPQRIPAHRFV [A9C] was 2.47; that for FVLGKGRGIAAAGGPQRIPAHRFV [A9I] was 1.94; that for FVLGKGRGGAAAGGPQRIPAHRFV [A9G] was 1.72. Turning to FVLGKGRGVAAAGGPQRIPAHRFV [A9V], the protein stability index was 2.21. The value for FVLGKGVGAAAAGGPQRIPAHRFV [R7V] was 2.06; that for FVLGKGQGAAAAGGPQRIPAHRFV [R7Q] was 1.82; that for FVLGKGIGAAAAGGPQRIPAHRFV [R7I] was 2.15. The value for FVLGKGEGAAAAGGPQRIPAHRFV [R7E] was 1.48; that for FVLGKGMGAAAAGGPQRIPAHRFV [R7M] was 2.03; that for FVLGKGSGAAAAGGPQRIPAHRFV [R7S] was 2.24. Consider FVLGKGHGAAAAGGPQRIPAHRFV [R7H], for which the protein stability index came out at 1.7. Take FVLGKGWGAAAAGGPQRIPAHRFV [R7W]: the protein stability index was determined as 3.44.

For the variant FVLGKGPGAAAAGGPQRIPAHRFV [R7P], the protein stability index came to 1.98. The value for FVLGKGNGAAAAGGPQRIPAHRFV [R7N] was 1.32; that for FVLGKGTGAAAAGGPQRIPAHRFV [R7T] was 2.23; that for FVLGKGFGAAAAGGPQRIPAHRFV [R7F] was 1.27. The result for FVLGKGCGAAAAGGPQRIPAHRFV [R7C] reads 3.48. The result for FVLGKGKGAAAAGGPQRIPAHRFV [R7K] reads 1.17; that for FVLGKGYGAAAAGGPQRIPAHRFV [R7Y], 1.72.

For the variant FVLGKGLGAAAAGGPQRIPAHRFV [R7L], the protein stability index was found to be 3.04.

As to FVLGKGDGAAAAGGPQRIPAHRFV [R7D], the protein stability index worked out at 1.49.

In the case of FVLGKGRGAAAAGMPQRIPAHRFV [G14M], the protein stability index came out at 1.88. The result for FVLGKGRGAAAAGIPQRIPAHRFV [G14I] reads 1.26. The result for FVLGKGRGAAAAGHPQRIPAHRFV [G14H] reads 1.87.

Turning to FVLGKGRGAAAAGRPQRIPAHRFV [G14R], the protein stability index is 1.04.

With FVLGKGRGAAAAGKPQRIPAHRFV [G14K], the protein stability index is 2.83.

On to FVLGKGRGAAAAGSPQRIPAHRFV [G14S], for which the protein stability index came to 2.64. Consider FVLGKGRGAAAAGDPQRIPAHRFV [G14D], for which the protein stability index stood at 2.64. For the variant FVLGKGRGAAAAGYPQRIPAHRFV [G14Y], the protein stability index amounted to 1.07. The value for FVLGKGRGAAAAGNPQRIPAHRFV [G14N] was 1.93; that for FVLGKGRGAAAAGLPQRIPAHRFV [G14L] was 2.15. The result for FVLGKGRGAAAAGCPQRIPAHRFV [G14C] reads 2.08.

In the case of FVLGKGRGAAAAGQPQRIPAHRFV [G14Q], the protein stability index was 2.88. With FVLGKGRGAAAAGVPQRIPAHRFV [G14V], the protein stability index came to 1.9.

Turning to FVLGKGRGAAAAGGRQRIPAHRFV [P15R], the protein stability index amounted to 1.99. The value for FVLGKGRGAAAAGGQQRIPAHRFV [P15Q] was 1.5; that for FVLGKGRGAAAAGGLQRIPAHRFV [P15L] was 1.43.

Turning to FVLGKGRGAAAAGGNQRIPAHRFV [P15N], the protein stability index was 1.52. As for FVLGKGRGAAAAGGHQRIPAHRFV [P15H], the protein stability index stood at 1.85. The value for FVLGKGRGAAAAGGWQRIPAHRFV [P15W] was 1.03; that for FVLGKGRGAAAAGGEQRIPAHRFV [P15E] was 1.81. The value for FVLGKGRGAAAAGGMQRIPAHRFV [P15M] was 2.08; that for FVLGKGRGAAAAGGYQRIPAHRFV [P15Y] was 1.49; that for FVLGKGRGAAAAGGVQRIPAHRFV [P15V] was 1.43. The result for FVLGKGRGAAAAGGCQRIPAHRFV [P15C] reads 3.79; that for FVLGKGRGAAAAGGTQRIPAHRFV [P15T], 2; that for FVLGKGRGAAAAGGDQRIPAHRFV [P15D], 1.86. For the variant FVLGKGRGAAAAGGKQRIPAHRFV [P15K], the protein stability index came to 1.06. The result for FVLGKGRGAAAAGGSQRIPAHRFV [P15S] reads 1.7.

As for FVLGKGRGAAAAGGPDRIPAHRFV [Q16D], the protein stability index was found to be 1.41. The value for FVLGKGRGAAAAGGPSRIPAHRFV [Q16S] was 1.9; that for FVLGKGRGAAAAGGPTRIPAHRFV [Q16T] was 1.39. For FVLGKGRGAAAAGGPARIPAHRFV [Q16A], the protein stability index came to 1.6.

Turning to FVLGKGRGAAAAGGPMRIPAHRFV [Q16M], the protein stability index was determined as 2.2. The value for FVLGKGRGAAAAGGPVRIPAHRFV [Q16V] was 2.31.

As for FVLGKGRGAAAAGGPERIPAHRFV [Q16E], the protein stability index is 1.67. The result for FVLGKGRGAAAAGGPRRIPAHRFV [Q16R] reads 1.9; that for FVLGKGRGAAAAGGPNRIPAHRFV [Q16N], 2.54; that for FVLGKGRGAAAAGGPPRIPAHRFV [Q16P], 1.86. The value for FVLGKGRGAAAAGGPIRIPAHRFV [Q16I] was 2.2; that for FVLGKGRGAAAAGGPGRIPAHRFV [Q16G] was 1.87.
